Consider one protein from paper PMC8092243, “Cryo-EM Structures of CusA Reveal a Mechanism of Metal-Ion Export” (mBio, 2021).

The data set deals with the molecule itself. The data set is described as follows: cryo-EM structure; CusA in lipid nanodiscs (MSP 1E3D1, E. coli total extract lipid), 0.7 mg/ml (2 uM), incubated with 20 uM Cu(I), 20 mM HEPES-NaOH pH 7.0; four trimer classes (EEE, EEB, EBB, BBB) from one sample.

B1: CusA heavy-metal efflux pump (natural protein, E. coli)
chain: MIEWIIRRSVANRFLVLMGALFLSIWGTWTIINTPVDALPDLSDVQVIIKTSYPGQAPQIVENQVTYPLTTTMLSVPGAKTVRGFSQFGDSYVYVIFEDGTDPYWARSRVLEYLNQVQGKLPAGVSAELGPDATGVGWIYEYALVDRSGKHDLADLRSLQDWFLKYELKTIPDVAEVASVGGVVKEYQVVIDPQRLAQYGISLAEVKSALDASNQEAGGSSIELAEAEYMVRASGYLQTLDDFNHIVLKASENGVPVYLRDVAKVQIGPEMRRGIAELNGEGEVAGGVVILRSGKNAREVIAAVKDKLETLKSSLPEGVEIVTTYDRSQLIDRAIDNLSGKLLEEFIVVAVVCALFLWHVRSALVAIISLPLGLCIAFIVMHFQGLNANIMSLGGIAIAVGAMVDAAIVMIENAHKRLEEWQHQHPDATLDNKTRWQVITDASVEVGPALFISLLIITLSFIPIFTLEGQEGRLFGPLAFTKTYAMAGAALLAIVVIPILMGYWIRGKIPPESSNPLNRFLIRVYHPLLLKVLHWPKTTLLVAALSVLTVLWPLNKVGGEFLPQINEGDLLYMPSTLPGISAAEAASMLQKTDKLIMSVPEVARVFGKTGKAETATDSAPLEMVETTIQLKPQEQWRPGMTMDKIIEELDNTVRLPGLANLWVPPIRNRIDMLSTGIKSPIGIKVSGTVLADIDAMAEQIEEVARTVPGVASALAERLEGGRYINVEINREKAARYGMTVADVQLFVTSAVGGAMVGETVEGIARYPINLRYPQSWRDSPQALRQLPILTPMKQQITLADVADIKVSTGPSMLKTENARPTSWIYIDARDRDMVSVVHDLQKAIAEKVQLKPGTSVAFSGQFELLERANHKLKLMVPMTLMIIFVLLYLAFRRVGEALLIISSVPFALVGGIWLLWWMGFHLSVATGTGFIALAGVAAEFGVVMLMYLRHAIEAVPSLNNPQTFSEQKLDEALYHGAVLRVRPKAMTVAVIIAGLLPILWGTGAGSEVMSRIAAPMIGGMITAPLLSLFIIPAAYKLMWLHRHRVRK
notes: CusA, heavy-metal efflux (HME) RND pump of Escherichia coli; the cusA gene cloned into pET15b; the cryo-EM models incorporate residues Ile-5 to Trp-1039; Homotrimer embedded in lipid nanodiscs, in the presence of Cu(I); The membrane scaffold protein MSP 1E3D1 of the nanodisc is not a studied partner; also called CusA membrane protein; CusA trimer
Usually stoichiometry N stands for a count of units in the complex or per binding partner. For B1, the “stoichiometry N” value stood at 3.
